# T1: Human BCMA (ACRO biosystems, BCA-H522y) (human, UniProt Q02223 1-54)
# T1 construct: Bought protein; also called human BCMA protein; BCMA antigen
# T1 sequence (looked up): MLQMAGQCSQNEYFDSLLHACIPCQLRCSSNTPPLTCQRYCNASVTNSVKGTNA
# T2: Human B7H6 (ACRO biosystems, B76-H52H8) (human, UniProt Q68D85 25-262)
# T2 construct: Bought protein; also called human B7H6 protein; B7H6 antigen
# T2 sequence (looked up): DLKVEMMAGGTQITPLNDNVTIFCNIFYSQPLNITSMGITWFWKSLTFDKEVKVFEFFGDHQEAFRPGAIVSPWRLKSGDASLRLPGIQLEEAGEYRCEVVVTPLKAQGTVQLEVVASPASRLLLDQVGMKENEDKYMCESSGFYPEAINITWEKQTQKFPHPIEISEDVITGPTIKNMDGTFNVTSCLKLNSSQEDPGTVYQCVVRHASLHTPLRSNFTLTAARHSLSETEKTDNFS
# How the values were obtained:
# [1] = target: T3, human CD16A antigen (ACRO biosystems, CDD-H52W1) (human, UniProt P08637 17-208, limits assumed); assay: ELISA, plate coated with human CD16A at 2 µg/mL, HRP-goat anti-human IgG, OD450
# T3 construct: Bought protein; also called human CD16A protein
# Protocol: (§1) Human BCMA (ACRO biosystems, BCA-H522y) or human CD16A antigen (ACRO biosystems, CDD-H52W1) was diluted to 2 μg/mL with the coating buffer (35 mM NaHCO₃, 15 mM Na₂CO₃, pH 9.6). 100 μL of the diluted solution was added to each well of the enzyme-linked plate and incubated overnight at 4° C. Then, the plate was washed three times with PBST (0.05% Tween 20-PBS, pH 7.2). 300 μL of blocking buffer (1% BSA, 0.05% Tween20-PBS, pH 7.2) was added to the plate and left to stand at room temperature for 2 hours. The plate was washed three times with PBST again. The corresponding bispecific antibody or the control antibody hIgG1 was added to each well and incubated at room temperature for 1 hour. The precipitate was washed three times with PBST. 100 μL of HRP-goat anti-human IgG secondary antibody (Jackson ImmunoResearch, 109-036-170) diluted with the blocking buffer was added to each well and incubated at room temperature for 1 hour. The plate was washed three times with PBST. TMB was added to each well. A reaction was performed at room temperature in the dark for 2 min to 5 min. The reaction was terminated by adding 2 M sulfuric acid to each well. OD450 values were read using a microplate reader.
# [2] = target: T1, Human BCMA (ACRO biosystems, BCA-H522y); assay: ELISA, plate coated with human BCMA at 2 µg/mL, HRP-goat anti-human IgG, OD450
# Protocol: as §1
# [3] = target: T2, Human B7H6 (ACRO biosystems, B76-H52H8); assay: ELISA, plate coated with human B7H6 at 2 µg/mL, HRP-goat anti-human IgG, OD450
# Protocol: (§2) Human B7H6 (ACRO biosystems, B76-H52H8) or human CD16A antigen (ACRO biosystems, Catalog No. CDA-H5220) was diluted to 2 μg/mL with the coating buffer (35 mM NaHCO₃, 15 mM Na₂CO₃, pH 9.6). 100 μL of the diluted solution was added to each well of the enzyme-linked plate and incubated overnight at 4° C. Then, the plate was washed three times with PBST (0.05% Tween 20-PBS, pH 7.2). 300 μL of blocking buffer (1% BSA, 0.05% Tween20-PBS, pH 7.2) was added to the plate and left to stand at room temperature for 2 hours. The plate was washed three times with PBST again. The corresponding bispecific antibody or control antibody hIgG was added to each well and incubated at room temperature for 1 hour. Again, the plate was washed three times with PBST. 100 μL of HRP-goat anti-human IgG secondary antibody (Jackson ImmunoResearch, 109-036-170) diluted with the blocking buffer was added to each well and incubated at room temperature for 1 hour. After incubation, the precipitate was washed three times with PBST. TMB was added to each well. A reaction was performed at room temperature in the dark for 2 min to 5 min. The reaction was terminated by adding 2 M sulfuric acid to each well. OD450 values were read using a microplate reader.
# [4] = target: T4, human CD16A^158F (ACRO biosystems, CDA-H5220) (human, UniProt P08637 17-208); assay: ELISA, plate coated with human CD16A at 2 µg/mL, HRP-goat anti-human IgG, OD450
# T4 construct: extracellular domain; Bought protein; also called human CD16A extracellular segment protein
# Protocol: as §2
# [5] = target: T5, human CD16A protein on CHO-K1 cells overexpressing human CD16A (human, UniProt P08637 17-254); assay: Flow cytometry on CHO-K1 cells overexpressing human CD16A, Alexa-647 goat anti-mouse secondary antibody, binding proportion (%)
# T5 construct: also called CHO cell overexpressing a human CD16A protein
# Protocol: (§3) The CHO-K1 cells overexpressing human CD16A or CHO-K1 cells overexpressing cynomolgus monkey CD16 obtained in Example 1 were diluted to 2×10⁶/mL with PBS and added to a 1.5 mL EP tube at a volume of 100 μL/tube. Then, 10 μL of goat serum was added to each tube. The mixture was blocked at 4° C. for 30 min. The CD16A antibody and the control antibody mlgG at gradient concentrations (5-fold serial dilution, with the highest final concentration of 10 μg/mL) were added and incubated at 4° C. for 30 minutes. Each EP tube was filled with 1 mL of PBS and centrifuged at 3,500 rpm for 5 min at 4° C. The supernatant was completely discarded, and the cells were washed once again with PBS. After another centrifugation, the supernatant was completely discarded. The cells were resuspended in 100 μL/tube of PBS. Alexa-647-conjugated goat anti-murine antibody secondary antibody (Invitrogen) was added at […]. The cells were incubated at 4° C. in the dark for 30 min, and were washed twice with PBS and centrifuged. Then, the supernatant was completely discarded. The cells were resuspended in 200 μL/tube of PBS and detected using a flow cytometer.
# [6] = target: T6, human CD16A^158V (ACRO biosystems, CD8-H52H4) (human, UniProt P08637 17-208); assay: ELISA, plate coated with human CD16A^158V at 2 µg/mL, HRP-goat anti-mouse IgG, OD450
# T6 construct: Bought protein; It is the 158V polymorphic form; also called human CD16A^158V protein
# Protocol: (§4) The ELISA experiment was performed to detect the binding properties of the murine CD16A antibody m40F5 obtained in Example 1. […] Then, the plate was then washed three times with PBST (0.05% Tween 20-PBS, pH 7.2). 300 μL of blocking buffer (1% BSA, 0.05% Tween20-PBS, pH 7.2) was added to the plate and left to stand at room temperature for 2 hours. Then, the plate was washed again three times with PBST. Murine antibody m40F5 or control antibody LS21 (WO2006/125668 EN) was added to each well and incubated at room temperature for 1 hour.
# (§5) Again, the plate was washed three times with PBST. 100 μL of HRP-goat anti-mouse IgG secondary antibody (boster, Catalog No. BA1051) diluted with the blocking buffer was added to each well and incubated at room temperature for 1 hour. The plate was washed three times with PBST. TMB was added to each well. A reaction was performed at room temperature in the dark for 2 min to 5 min. The reaction was terminated with 2 M sulfuric acid. OD450 values were read using a microplate reader.
# [7] = target: T7, cynomolgus monkey CD16 (ACRO biosystems, FC6-C52H9) (cynomolgus monkey, UniProt Q8SPW2 17-208); assay: ELISA, plate coated with cynomolgus monkey CD16 at 2 µg/mL, HRP-goat anti-mouse IgG, OD450
# T7 construct: Bought protein; also called monkey CD16 protein; monkey CD16 antigen
# Protocol: as §4, §5
# [8] = target: T4, human CD16A^158F (ACRO biosystems, …); assay: ELISA, plate coated with human CD16A^158F at 2 µg/mL, HRP-goat anti-mouse IgG, OD450
# Protocol: as §4, §5
# [9] = target: T8, human CD16B^NA2 (ACRO biosystems, CDB-H5222) (human, UniProt O75015 17-200); assay: ELISA, plate coated with human CD16B^NA2 at 2 µg/mL, HRP-goat anti-mouse IgG, OD450
# T8 construct: Bought protein; NA2 polymorphic form; also called human CD16B^NA2 protein
# Protocol: as §4, §5
# [10] = target: T9, human CD16B^SH (Sino Biological, 11046-H08H2) (human, UniProt O75015 17-200); assay: ELISA, plate coated with human CD16B^SH at 2 µg/mL, HRP-goat anti-mouse IgG, OD450
# T9 construct: Bought protein; SH polymorphic form; also called human CD16B^SH protein
# Protocol: as §4, §5
# [11] = target: T10, cynomolgus monkey CD16 protein on CHO-K1 cells overexpressing cynomolgus monkey CD16 (cynomolgus monkey, UniProt Q8SPW2 17-254); assay: Flow cytometry on CHO-K1 cells overexpressing cynomolgus monkey CD16, Alexa-647 goat anti-mouse secondary antibody, binding proportion (%)
# T10 construct: also called CHO cell overexpressing a cynomolgus monkey CD16A protein; monkey CD16A protein
# Protocol: as §3
# [12] = target: T11, human CD16B^NA1 (ACRO biosystems, CDB-H5227) (human, UniProt O75015 17-200, limits assumed); assay: ELISA, plate coated with human CD16B^NA1 at 2 µg/mL, HRP-goat anti-mouse IgG, OD450
# T11 construct: Bought protein; NA1 polymorphic form; also called human CD16B^NA1 protein
# Protocol: as §4, §5
# T4 sequence (P08637 17-208): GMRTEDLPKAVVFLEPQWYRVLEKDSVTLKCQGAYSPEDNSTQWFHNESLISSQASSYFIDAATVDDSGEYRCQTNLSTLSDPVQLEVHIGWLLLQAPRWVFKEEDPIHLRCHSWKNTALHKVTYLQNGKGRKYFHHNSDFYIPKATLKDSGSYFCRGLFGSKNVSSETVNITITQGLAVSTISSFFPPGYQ
# T8 sequence (O75015 17-200 N65S limits assumed): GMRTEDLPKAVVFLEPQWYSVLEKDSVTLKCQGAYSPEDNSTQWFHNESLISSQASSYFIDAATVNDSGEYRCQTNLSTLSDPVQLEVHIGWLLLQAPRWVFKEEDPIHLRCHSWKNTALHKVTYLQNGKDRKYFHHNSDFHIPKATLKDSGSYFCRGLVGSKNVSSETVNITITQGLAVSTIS
# T9 sequence (O75015 17-200 N65S/A78D limits assumed): as the sequence (O75015 17-200 N65S limits assumed) above, with A62D counted along it
# T3 sequence (P08637 17-208 limits assumed): as the sequence (P08637 17-208) above
# T5 sequence (P08637 17-254 limits assumed): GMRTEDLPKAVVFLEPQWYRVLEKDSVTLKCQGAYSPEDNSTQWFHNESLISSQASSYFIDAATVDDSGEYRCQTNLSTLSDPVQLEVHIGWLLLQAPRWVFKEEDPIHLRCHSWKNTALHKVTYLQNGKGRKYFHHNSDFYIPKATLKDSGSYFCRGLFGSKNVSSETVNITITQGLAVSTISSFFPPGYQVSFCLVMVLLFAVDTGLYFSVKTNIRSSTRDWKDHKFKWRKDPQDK
# T7 sequence (Q8SPW2 17-208 limits assumed): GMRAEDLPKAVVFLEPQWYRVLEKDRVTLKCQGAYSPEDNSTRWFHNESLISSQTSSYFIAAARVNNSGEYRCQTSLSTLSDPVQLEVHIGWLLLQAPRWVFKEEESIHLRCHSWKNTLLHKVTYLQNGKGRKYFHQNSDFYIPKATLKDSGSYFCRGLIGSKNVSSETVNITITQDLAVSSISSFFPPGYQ
# T11 sequence (O75015 other isoform, or with tags, fused parts or gaps limits assumed): as the sequence (O75015 17-200 N65S limits assumed) above, with S20R, S49N, N66D, I90V counted along it
# T10 sequence (Q8SPW2 17-254 limits assumed): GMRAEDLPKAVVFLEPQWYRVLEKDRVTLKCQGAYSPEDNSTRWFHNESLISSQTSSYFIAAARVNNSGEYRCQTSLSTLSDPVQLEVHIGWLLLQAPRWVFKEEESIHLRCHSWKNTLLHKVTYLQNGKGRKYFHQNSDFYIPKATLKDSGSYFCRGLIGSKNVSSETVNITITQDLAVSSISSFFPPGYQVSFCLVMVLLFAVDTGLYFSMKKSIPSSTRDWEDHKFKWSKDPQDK
# T6 sequence (P08637 17-208 F176V limits assumed): as the sequence (P08637 17-208) above, with F160V counted along it
binder,measurement,setting,value
"bispecific antibody CD16A×BCMA (bispecific antibody, human IgG1, L234A L235A, also called CD16A×BCMA bispecific antibody) chain 1: not shown chain 2: DIQMTQSPSSLSASVGDRVTITCSASQDISNYLNWYQQKPGKAPKLLIYYTSNLHSGVPSRFSGSGSGTDFTLTISSLQPEDFATYYCQQYRKLPWTFGQGTKLEIKRGGGGSGGGGSGGGGSQVQLVQSGAEVKKPGSSVKVSCKASGGTFSNYWMHWVRQAPGQGLEWMGATYRGHSDTYYNQKFKGRVTITADKSTSTAYMELSSLRSEDTAVYYCARGAIYDGYDVLDNWGQGTLVTVSSEPKSCDKTHTCPPCPAPEAAGGPSVFLFPPKPKDTLMISRTPEVTCVVVDVSHEDPEVKFNWYVDGVEVHNAKTKPREEQYNSTYRVVSVLTVLHQDWLNGKEYKCKVSNKALPAPIEKTISKAKGQPREPQVCTLPPSREEMTKNQVSLSCAVKGFYPSDIAVEWESNGQPENNYKTTPPVLDSDGSFFLVSKLTVDKSRWQQGNVFSCSVMHEALHNHYTQKSLSLSPGK",EC50 (read off the curve),[1],~0.04 µg/mL
same,EC50 (read off the curve),[2],~0.006 µg/mL
"bispecific antibody CD16A×B7H6 (bispecific antibody, human IgG1, L234A L235A, also called CD16A×B7H6 bispecific antibody) chain 1: not shown chain 2: DIVLTQTPLSLSVTPGQPASISCKASQSVDYDGDSYMNWYLQKPGQPPQLLIYAASTLHSGIPDRFSGSGSGTDFTLKISRVEAEDVGVYYCQQSKEDPRTFGQGTKLEIKGGGGSGGGGSGGGGSEVQLVQSGAEVKKPGASVKVSCKASGYTFTDYNMDWVRQAPGQGLEWIGDINPNNGGTLYNQKFRGRVTLTVDTSISTAYMELSRLRSDDTAVYYCARSEVFYGNYADYWGQGTTVTVSSEPKSCDKTHTCPPCPAPEAAGGPSVFLFPPKPKDTLMISRTPEVTCVVVDVSHEDPEVKFNWYVDGVEVHNAKTKPREEQYNSTYRVVSVLTVLHQDWLNGKEYKCKVSNKALPAPIEKTISKAKGQPREPQVCTLPPSREEMTKNQVSLSCAVKGFYPSDIAVEWESNGQPENNYKTTPPVLDSDGSFFLVSKLTVDKSRWQQGNVFSCSVMHEALHNHYTQKSLSLSPGK",EC50 (read off the curve),[3],~0.005 µg/mL
same,EC50 (read off the curve),[4],~0.05 µg/mL
"murine CD16A antibody m40F5 (antibody, mouse IgG2a, kappa, also called murine m40F5 antibody; murine 40F5) heavy: DVQLQESGPGLVKPSQSLSLTCTVTGYSITSDYAWNWIRQFPGNKLEWMGYISYSGYTNYNPSLESRISVTRDTSKNQFFLQLNSVTTEDTATYYCAREVGLRLGWFAYWGQGTLVAVSAAKTTAPSVYPLAPVCGDTTGSSVTLGCLVKGYFPEPVTLTWNSGSLSSGVHTFPAVLQSDLYTLSSSVTVTSSTWPSQSITCNVAHPASSTKVDKKIEPRGPTIKPCPPCKCPAPNLLGGPSVFIFPPKIKDVLMISLSPIVTCVVVDVSEDDPDVQISWFVNNVEVHTAQTQTHREDYNSTLRVVSALPIQHQDWMSGKEFKCKVNNKDLPAPIERTISKPKGSVRAPQVYVLPPPEEEMTKKQVTLTCMVTDFMPEDIYVEWTNNGKTELNYKNTEPVLDSDGSYFMYSKLRVEKKNWVERNSYSCSVVHEGLHNHHTTKSFSRTPGK light: SIVMTQTPKFLLISAGDRVTITCKASQSVNNDVAWYQQKPGQSPKLLIYYASNRYTGVPDHFTGSGYGTDFTFTISTVQAEDLAVYFCQQHYSSPWTFGGGTKLEFKRADAAPTVSIFPPSSEQLTSGGASVVCFLNNFYPKDINVKWKIDGSERQNGVLNSWTDQDSKDSTYSMSSTLTLTKDEYERHNSYTCEATHKTSTSPIVKSFNRNEC",EC50 (read off the curve),[5],~0.02 µg/mL
same,EC50 (read off the curve),[6],~0.03 µg/mL
same,EC50 (read off the curve),[7],~0.02 µg/mL
same,EC50 (read off the curve),[8],~0.02 µg/mL
same,binding result,[9],no binding (tested: 10^4 ng/ml)
same,binding result,[10],no binding (tested: 10^4 ng/ml)
same,EC50 (read off the curve),[11],~0.005 µg/mL
same,binding result,[12],no binding (tested: 10^4 ng/ml)

# — patent publication US20250297012A1 (HEFEI TG IMMUNOPHARMA, published 2025)
